From paper PMC1931443, “Vertebrate DM domain proteins bind similar DNA sequences and can heterodimerize on DNA” come the findings set out here.

Series [1] deals with T1, DMRT3 (mouse, UniProt Q80WT2 1-476). Nature of the series: EMSA supershift; primarily monomer; 9E10; EMSA: 10 mM Tris-HCl pH 7.9, 100 mM KCl, 10% glycerol, 5 mM MgCl2, 1 mM spermidine, 0.075% Triton-X-100, 1 mM DTT, 1 ug BSA, 0.1 ug dI-dC, 75 ng plasmid DNA, 0.5 ng probe, 4 ul IVT mix in 20 ul, on ice 10 min; gel at 4 C; IVT with 20 uM ZnSO4. As to conditions: protein: ivt; tags: N-terminal Myc; label: 32P (Klenow fill-in); 5' overhang 4 nt both ends (filled in on labeling).
T1 sequence (Q80WT2 whole entry): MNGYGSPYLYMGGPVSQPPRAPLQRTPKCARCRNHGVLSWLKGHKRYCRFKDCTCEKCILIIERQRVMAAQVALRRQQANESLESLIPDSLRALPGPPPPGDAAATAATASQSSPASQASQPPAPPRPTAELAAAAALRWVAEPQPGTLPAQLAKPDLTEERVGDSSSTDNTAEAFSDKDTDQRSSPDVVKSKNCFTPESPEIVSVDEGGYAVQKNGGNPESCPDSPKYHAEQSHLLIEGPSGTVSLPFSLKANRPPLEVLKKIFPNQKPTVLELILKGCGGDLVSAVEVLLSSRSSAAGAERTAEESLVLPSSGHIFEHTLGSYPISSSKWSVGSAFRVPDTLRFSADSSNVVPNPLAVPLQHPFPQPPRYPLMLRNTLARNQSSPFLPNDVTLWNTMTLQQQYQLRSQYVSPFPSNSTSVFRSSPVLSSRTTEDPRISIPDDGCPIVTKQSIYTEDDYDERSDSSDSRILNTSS

In series [2] the target is T2, DMRT5 (mouse, UniProt A2A9A2 1-531). Nature of the series: EMSA supershift; 9E10; EMSA: 10 mM Tris-HCl pH 7.9, 100 mM KCl, 10% glycerol, 5 mM MgCl2, 1 mM spermidine, 0.075% Triton-X-100, 1 mM DTT, 1 ug BSA, 0.1 ug dI-dC, 75 ng plasmid DNA, 0.5 ng probe, 4 ul IVT mix in 20 ul, on ice 10 min; gel at 4 C; IVT with 20 uM ZnSO4. Conditions: protein: ivt; tags: N-terminal Myc; label: 32P (Klenow fill-in); 5' overhang 4 nt both ends (filled in on labeling).
T2 sequence (A2A9A2 whole entry): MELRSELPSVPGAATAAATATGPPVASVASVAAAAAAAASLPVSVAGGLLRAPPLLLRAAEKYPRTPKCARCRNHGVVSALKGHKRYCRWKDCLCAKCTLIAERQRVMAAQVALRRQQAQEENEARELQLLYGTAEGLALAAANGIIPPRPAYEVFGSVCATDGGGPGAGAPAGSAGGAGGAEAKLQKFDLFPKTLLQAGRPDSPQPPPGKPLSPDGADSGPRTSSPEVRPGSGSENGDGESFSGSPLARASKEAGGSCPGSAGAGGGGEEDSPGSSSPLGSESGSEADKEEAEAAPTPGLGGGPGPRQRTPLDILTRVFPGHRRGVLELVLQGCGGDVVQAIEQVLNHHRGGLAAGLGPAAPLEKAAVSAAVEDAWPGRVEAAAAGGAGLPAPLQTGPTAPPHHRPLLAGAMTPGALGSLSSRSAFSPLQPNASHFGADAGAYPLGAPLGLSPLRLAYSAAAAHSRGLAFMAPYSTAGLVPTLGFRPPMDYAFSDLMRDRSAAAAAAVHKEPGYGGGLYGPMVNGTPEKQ

Series [3] deals with T1, DMRT3. Nature of the series: EMSA supershift; mainly dimer; 9E10; EMSA: 10 mM Tris-HCl pH 7.9, 100 mM KCl, 10% glycerol, 5 mM MgCl2, 1 mM spermidine, 0.075% Triton-X-100, 1 mM DTT, 1 ug BSA, 0.1 ug dI-dC, 75 ng plasmid DNA, 0.5 ng probe, 4 ul IVT mix in 20 ul, on ice 10 min; gel at 4 C; IVT with 20 uM ZnSO4. Conditions: protein: ivt; tags: N-terminal Myc; label: 32P (Klenow fill-in); 5' overhang 4 nt both ends (filled in on labeling).

The target of another series is DMRT4 (mouse, UniProt Q8CFG4 1-490). The experiment in a line: EMSA; complex fails to enter gel (possible aggregate); EMSA: 10 mM Tris-HCl pH 7.9, 100 mM KCl, 10% glycerol, 5 mM MgCl2, 1 mM spermidine, 0.075% Triton-X-100, 1 mM DTT, 1 ug BSA, 0.1 ug dI-dC, 75 ng plasmid DNA, 0.5 ng probe, 4 ul IVT mix in 20 ul, on ice 10 min; gel at 4 C; IVT with 20 uM ZnSO4. As to conditions: protein: ivt; tags: C-terminal Myc; chain copies: 2; label: 32P (Klenow fill-in); 5' overhang 4 nt both ends (filled in on labeling).
DMRT4, sequence (Q8CFG4 whole entry): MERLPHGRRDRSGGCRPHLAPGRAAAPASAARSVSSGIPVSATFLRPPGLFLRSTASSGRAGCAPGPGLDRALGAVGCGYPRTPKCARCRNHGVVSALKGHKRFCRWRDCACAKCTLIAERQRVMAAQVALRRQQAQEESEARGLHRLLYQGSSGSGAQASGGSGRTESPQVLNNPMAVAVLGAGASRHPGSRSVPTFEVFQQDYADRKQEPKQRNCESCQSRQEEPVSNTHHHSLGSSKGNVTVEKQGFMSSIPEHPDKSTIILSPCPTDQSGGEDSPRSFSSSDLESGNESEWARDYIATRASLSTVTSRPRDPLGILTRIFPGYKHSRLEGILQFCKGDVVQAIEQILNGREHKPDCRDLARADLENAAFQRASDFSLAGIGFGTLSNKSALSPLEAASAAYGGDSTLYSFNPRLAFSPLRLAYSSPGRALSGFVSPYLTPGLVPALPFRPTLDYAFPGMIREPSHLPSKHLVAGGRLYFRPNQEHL

Series [4] deals with T2, DMRT5. The experiment in a line: competition; 40-fold excess; tolerated; EMSA: 10 mM Tris-HCl pH 7.9, 100 mM KCl, 10% glycerol, 5 mM MgCl2, 1 mM spermidine, 0.075% Triton-X-100, 1 mM DTT, 1 ug BSA, 0.1 ug dI-dC, 75 ng plasmid DNA, 0.5 ng probe, 4 ul IVT mix in 20 ul, on ice 10 min; gel at 4 C; IVT with 20 uM ZnSO4. Conditions: protein: ivt; tags: N-terminal Myc; 5' overhang 4 nt both ends.

B1: 3RE (dsDNA)
DNA 1: TCGAGAACAATGTAACAATTTCGCCC
DNA 2: TCGAGGGCGAAATTGTTACATTGTTC
With B1, the binding result with DMRT3 [1] was “binds”.

B2: 1RE (Figure 2) (dsDNA)
DNA 1: TCGAGCCCGCAACAATGTTGCAAATC
DNA 2: TCGAGATTTGCAACATTGTTGCGGGC
For the molecule B2, the binding result with DMRT5 [2], in the series with DMRT3 [3] and with DMRT4 was “binds” in each case.

B3: DMRT1 site -8G (dsDNA)
DNA 1: TCGAGATGTGATACATTGTTGC
DNA 2: TCGAGCAACAATGTATCACATC
As for B3, the binding result in the series with DMRT5 [4] is given as “binds”.
